Assay results taken from patent publication US20100119588A1.
Read-outs that look alike come from different tables or passages of the source.

What was measured:
[1] = molecular target: hemagglutinin H3 on influenza virus A/Aichi/2/68 strain (H3N2) (influenza virus A/Aichi/2/68 (H3N2)) (UniProt P03437); experiment: cell-based or functional assay
[2] = molecular target: hemagglutinin H3 on influenza virus A/Aichi/2/68 strain (H3N2) (influenza virus A/Aichi/2/68 (H3N2)) (UniProt P03437); experiment: cell-based or functional assay; remark: listed apart in the source

Row | Substance | IC50(µM), plaque assay, infection of MDCK cells [1] [µM] | IC50(µM), plaque assay, infection of MDCK cells [2] [µM]
1 | C18-s2(2-8) (C18-RLPRTMV peptide amide) | > 100 | 
2 | C18-s2(1-2) (C18-AR peptide amide) | > 100 | 
3 | C18-s2(1-3) (C18-ARL peptide amide) | > 100 | 
4 | C18-s2(r1-4) (C18-PLRA peptide amide) |  | 14
5 | C18-s2(8-15) (C18-VHPKPAQP peptide amide) | 10.5 | 
6 | C18-s2(r1-5) (C18-RPLRA peptide amide) |  | 0.94
7 | C18-s2(r1-8) (C18-VMTRPLRA peptide amide) | 226 | 
8 | C18-s2(1-8) (C18-ARLPRTMV peptide amide) |  | 1.4
9 | C18-s2(1-5) (C18-ARLPR peptide amide) | 3 | 1.55
10 | C18-s2(1-4)P4A (C18-ARLA peptide amide) | > 100 | 
11 | C18-s2(5-11) (C18-RTMVHPK peptide amide) | > 100 | 
12 | C18-s2(1-7) (C18-ARLPRTM peptide amide) | 9.1 | 
13 | C18-s2(1-6) (C18-ARLPRT peptide amide) | 5 | 
14 | C18-s2(1-4) (C18-ARLP peptide amide) | 21 | 
